Biological target: the molecule itself
Experiment: SAXS with online ion-exchange chromatography (IEC-SAXS)

B1: D5_(323–785), the D5N and helicase domains of the Vaccinia virus helicase–primase D5 (domain or fragment)
chain: GNKLFNIAQRILDTNSVLLTERGDYIVWINNSWKFNSEEPLITKLILSIRHQLPKEYSSELLCPRKRKTVEANIRDMLVDSVETDTYPDKLPFKNGVLDLVDGMFYSGDDAKKYTCTVSTGFKFDDTKFVEDSPEMEELMNIINDIQPLTDENKKNRELYEKTLSSCLCGATKGCLTFFFGETATGKSTTKRLLKSAIGDLFVETGQTILTDVLDKGPNPFIANMHLKRSVFCSELPDFACSGSKKIRSDNIKKLTEPCVIGRPCFSNKINNRNHATIIIDTNYKPVFDRIDNALMRRIAVVRFRTHFSQPSGREAAENNDAYDKVKLLDEGLDGKIQNNRYRFAFLYLLVKWYKKYHVPIMKLYPTPEEIPDFAFYLKIGTLLVSSSVKHIPLMTDLSKKGYILYDNVVTLPLTTFQQKISKYFNSRLFGHDIESFINRHKKFANVSDEYLQYIFIEDISSP
notes: also called D5R fragment
  stoichiometry N: 6

Reference: paper PMC5053136 (Acta Crystallographica. Section D, Structural Biology, 2016)
